B1: Phorbol-12-myristate-13-acetate-induced protein 1 (Mus musculus), Q9JM54 (parent)
chain: MPGRKARRNAPVNPTRAELPPEFAAQLRKIGDKVYCTWSAPDITVVLAQMPGKSQKSRMRSPSPTRVPADLKDECAQLRRIGDKVNLRQKLLNLISKLFNLVT
B2: Bcl-2-binding component 3 (Mus musculus), Q99ML1 (parent)
chain: MARARQEGSSPEPVEGLARDSPRPFPLGRLMPSAVSCSLCEPGLPAAPAAPALLPAAYLCAPTAPPAVTAALGGPRWPGGHRSRPRGPRPDGPQPSLSPAQQHLESPVPSAPEALAGGPTQAAPGVRVEEEEWAREIGAQLRRMADDLNAQYERRRQEEQHRHRPSPWRVMYNLFMGLLPLPRDPGAPEMEPN

Variants of: B1
Conditions: with mcl1_mouse Mcl1, P97287
Chain of mcl1_mouse Mcl1, P97287 (P97287 whole entry): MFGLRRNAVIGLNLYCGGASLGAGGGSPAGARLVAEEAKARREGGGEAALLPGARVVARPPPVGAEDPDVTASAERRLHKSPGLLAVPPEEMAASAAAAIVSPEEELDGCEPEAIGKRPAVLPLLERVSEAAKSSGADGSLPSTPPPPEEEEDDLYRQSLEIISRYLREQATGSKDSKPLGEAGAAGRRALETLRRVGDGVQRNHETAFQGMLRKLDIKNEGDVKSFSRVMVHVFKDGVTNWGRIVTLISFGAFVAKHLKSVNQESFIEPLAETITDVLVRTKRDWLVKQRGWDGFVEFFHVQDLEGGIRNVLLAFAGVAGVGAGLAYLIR

effect of a mutation on the interaction	Variant
increasing interaction strength	E74F

Variants of: B2
Conditions: with mcl1_mouse Mcl1, P97287

effect of a mutation on the interaction	Variant
increasing interaction	M144I

Reference: IntAct's records for PubMed 18589438
